Data on one molecule can be found in paper PMC11214410 (iScience, 2024).

This assay deals with T1, His-p97 F539A (human, UniProt P55072 1-806, F539A).
T1 construct: Homohexamer in the cryo-EM structure; also called F539A (D2); D2 mutant
The assay can be described thus: cross-linking; purified p97 F539A (1.26 mg/mL) and its adaptor (0.66 mg/mL) in 50mM HEPES pH 7.5, 30mM KCl, 10, 50 or 100 μM DTSSP, 30 min room temperature; trypsin, LC-MS/MS. To be noted: both partners purified.

T1 sequence (P55072 whole entry F539A): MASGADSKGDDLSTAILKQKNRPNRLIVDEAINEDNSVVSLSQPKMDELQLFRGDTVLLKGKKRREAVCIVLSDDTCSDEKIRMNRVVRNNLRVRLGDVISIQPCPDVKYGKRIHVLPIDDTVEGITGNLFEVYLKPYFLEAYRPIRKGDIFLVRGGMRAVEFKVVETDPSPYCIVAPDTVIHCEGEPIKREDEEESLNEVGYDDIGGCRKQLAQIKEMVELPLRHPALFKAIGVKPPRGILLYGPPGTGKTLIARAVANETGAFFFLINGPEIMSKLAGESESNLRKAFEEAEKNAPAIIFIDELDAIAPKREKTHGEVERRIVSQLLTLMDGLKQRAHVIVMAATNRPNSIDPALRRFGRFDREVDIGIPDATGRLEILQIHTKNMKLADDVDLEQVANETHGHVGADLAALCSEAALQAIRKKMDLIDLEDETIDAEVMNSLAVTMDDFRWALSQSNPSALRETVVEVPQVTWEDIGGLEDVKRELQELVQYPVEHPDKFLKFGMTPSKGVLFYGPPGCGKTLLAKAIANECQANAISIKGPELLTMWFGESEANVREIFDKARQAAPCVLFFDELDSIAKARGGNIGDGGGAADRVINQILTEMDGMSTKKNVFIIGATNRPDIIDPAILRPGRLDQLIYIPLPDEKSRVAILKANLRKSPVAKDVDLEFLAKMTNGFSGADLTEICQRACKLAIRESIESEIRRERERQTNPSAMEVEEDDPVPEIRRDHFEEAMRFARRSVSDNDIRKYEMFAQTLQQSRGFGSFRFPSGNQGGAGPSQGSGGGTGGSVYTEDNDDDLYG

B1: Npl4 (untagged) (natural protein, rat, UniProt Q9ES54 1-608, looked up)
chain: MAESIIIRVQSPDGVKRITATKRETAATFLKKVAKEFGFQNNGFSVYINRNKTGEITASSSKSLHLLKIKHGDLLFLFPSSLAGPSSEMETSTSVGLKAFGAPHVVEDEIDQYLSKQDGKIYRSRDPQLCRHGPLGKCVHCVPLEPFDEDYLNHLEPPVKHMSFHAYIRKLTGGADKGKFVALENISCKIKSGCEGHLPWPNGICTKCQPSAITLNRQKYRHVDNIMFENHTVADRFLDFWRKTGNQHFGYLYGRYTEHKDIPLGIRAEVAAIYEPPQIGTQNSLELLEDPKAEVVDEIASKLGLRKVGWIFTDLVSEDTRKGTVRYSRNKDTYFLSSEECITAGDFQNKHPNICRLSPDGHFGSKFVTAVATGGPDNQVHFEGYQVSNQCMALVRDECLLPCKDAPELGYAKESSSEQYVPDVFYKDIDKFGNEITQLARPLPVEYLIIDITTTFPKDPVYTFSISQNPFPIENRDVLGETQDFHSLATYLSQNTSSVFLDTISDFHLLLFLVTNEVMPLQDSISLLLEAVRTRNEELAQTWKKSEQWATIEQLCSTVGVQLPGLHEFGAVGGSARAATSAMWACQHCTFMNQPGTGHCEMCSLPRT
notes: Npl4, untagged, expressed from pET30-Npl4; the cross-linking data were searched against rat Npl4; In the cryo-EM and cross-linking experiments Npl4 stood as part of the Ufd1/Npl4 heterodimer; source: E. coli BL21 (DE3), in lysate
For the molecule B1, the binding result is listed as “binds”.
